{
  "source": "paper PMC11121562",
  "origin": "cited, not measured here",
  "molecular_target": "Cyclin C (Homo sapiens) (UniProt P24863)",
  "sequence (P24863 whole entry)": "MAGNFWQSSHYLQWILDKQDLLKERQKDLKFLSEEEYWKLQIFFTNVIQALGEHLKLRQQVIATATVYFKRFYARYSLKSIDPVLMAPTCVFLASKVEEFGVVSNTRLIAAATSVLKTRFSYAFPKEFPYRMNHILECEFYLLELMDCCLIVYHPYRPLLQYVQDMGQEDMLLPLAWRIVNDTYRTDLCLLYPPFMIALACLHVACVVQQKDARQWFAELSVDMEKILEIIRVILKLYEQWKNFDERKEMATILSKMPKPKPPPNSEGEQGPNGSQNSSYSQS",
  "data": [
    {"substance": "CDK8 (from UniProt P49336)", "values": [
      {"measurement": "Kd", "result": 7.05, "unit": "nM"}
    ]}
  ]
}
